Data on three molecules can be found in article PMC11957774 (The Journal of Biological Chemistry, 2025).

T1: MLL4 PHD2/3 fingers (aa 227-324), 15N-labeled (human, UniProt O14686 227-324, uniformly 15N-labeled)
T1 sequence (looked up): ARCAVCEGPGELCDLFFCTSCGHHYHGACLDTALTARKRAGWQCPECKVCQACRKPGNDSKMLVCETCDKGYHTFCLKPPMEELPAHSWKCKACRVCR

B1: ASXL2 peptide (residues 650-670 of ASXL2) R655I (peptide, UniProt Q76L83 650-670, looked up)
peptide: NRTGAITLADIKAKAQLVKAQ
B2: ASXL1 peptide (residues 607-627 of ASXL1), wild type (peptide, UniProt Q8IXJ9 607-627, looked up)
peptide: GWTGARTLADIKARALQVRGA
B3: ASXL1 peptide (residues 607-627 of ASXL1) A611T (peptide, UniProt Q8IXJ9 607-627, looked up)
peptide: GWTGTRTLADIKARALQVRGA

This experiment addresses T1, MLL4 PHD2/3 fingers (aa 227-324), …. Kind of experiment: NMR titration.
For B1, the binding result was “binds”.
B2: the binding result was “binds”.
Regarding B3, the binding result is “binds”.
